Measured values from the supplement of paper PMC11246515.
± gives the standard deviation of the averaged measurements.

Test: total protein half-life in vivo (active degradation + dilution); higher = more stable protein
[1] = E. coli NCM3722 delta-hslV, growth: N-lim chemostat, doubling time 6 h
[2] = E. coli NCM3722 delta-smpB, growth: N-lim chemostat, doubling time 6 h
[3] = wild type E. coli NCM3722, growth: C-lim chemostat, doubling time 3 h
[4] = wild type E. coli NCM3722, growth: C-lim chemostat, doubling time 6 h
[5] = wild type E. coli NCM3722, growth: C-lim chemostat, doubling time 12 h
[6] = wild type E. coli NCM3722, growth: N-lim chemostat, doubling time 6 h
[7] = wild type E. coli NCM3722, growth: P-lim chemostat, doubling time 12 h
[8] = E. coli NCM3722 delta-clpP delta-lon delta-hslV, growth: N-lim chemostat, doubling time 6 h
[9] = wild type E. coli NCM3722, growth: N-lim chemostat, doubling time 12 h
[10] = wild type E. coli NCM3722, growth: P-lim chemostat, doubling time 6 h
[11] = E. coli NCM3722 delta-clpP, growth: N-lim chemostat, doubling time 6 h
[12] = E. coli NCM3722 delta-lon, growth: N-lim chemostat, doubling time 6 h

Sequence | total protein half-life in vivo [1] | total protein half-life in vivo [2] | total protein half-life in vivo [3] | total protein half-life in vivo [4] | total protein half-life in vivo [5] | total protein half-life in vivo [6] | total protein half-life in vivo [7] | total protein half-life in vivo [8] | total protein half-life in vivo [9] | total protein half-life in vivo [10] | total protein half-life in vivo [11] | total protein half-life in vivo [12]
MKKLTIGLIGNPNSGKTTLFNQLTGSRQRVGNWAGVTVERKEGQFSTTDHQVTLVDLPGTYSLTTISSQTSLDEQIACHYILSGDADLLINVVDASNLERNLYLTLQLLELGIPCIVALNMLDIAEKQNIRIEIDALSARLGCPVIPLVSTRGRGIEALKLAIDRYKANENVELVHYAQPLLNEADSLAKVMPSDIPLKQRRWLGLQMLEGDIYSRAYAGEASQHLDAALARLRNEMDDPALHIADARYQCIAAICDVVSNTLTAEPSRFTTAVDKIVLNRFLGLPIFLFVMYLMFLLAINIGGALQPLFDVGSVALFVHGIQWIGYTLHFPDWLTIFLAQGLGGGINTVLPLVPQIGMMYLFLSFLEDSGYMARAAFVMDRLMQALGLPGKSFVPLIVGFGCNVPSVMGARTLDAPRERLMTIMMAPFMSCGARLAIFAVFAAAFFGQNGALAVFSLYMLGIVMAVLTGLMLKYTIMRGEATPFVMELPVYHVPHVKSLIIQTWQRLKGFVLRAGKVIIIVSIFLSAFNSFSLSGKIVDNINDSALASVSRVITPVFKPIGVHEDNWQATVGLFTGAMAKEVVVGTLNTLYTAENIQDEEFNPAEFNLGEELFSAIDETWQSLKDTFSLSVLMNPIEASKGDGEMGTGAMGVMDQKFGSAAAAYSYLIFVLLYVPCISVMGAIARESSRGWMGFSILWGLNIAYSLATLFYQVASYSQHPTYSLVCILAVILFNIVVIGLLRRARSRVDIELLATRKSVSSCCAASTTGDCH | 0.616 h | 0.941 ± 0.47 h | 0.812 ± 0.12 h | 0.749 h | 1.58 ± 0.19 h | 0.841 h | 4.22 h |  |  |  |  | 
MKKLTVAALAVTTLLSGSAFAHEAGEFFMRAGSATVRPTEGAGGTLGSLGGFSVTNNTQLGLTFTYMATDNIGVELLAATPFRHKIGTRATGDIATVHHLPPTLMAQWYFGDASSKFRPYVGAGINYTTFFDNGFNDHGKEAGLSDLSLKDSWGAAGQVGVDYLINRDWLVNMSVWYMDIDTTANYKLGGAQQHDSVRLDPWVFMFSAGYRF [P0A915] | 6.45 ± 0.39 h | 6.21 ± 1.9 h | 3.53 ± 0.14 h | 7.52 ± 0.61 h | 12.6 ± 1.5 h | 7.26 h | 15.44 ± 0.068 h | 6.65 ± 0.21 h | > 16 h | 6.15 h |  | 
MKKLVLSLSLVLAFSSATAAFAAIPQNIRIGTDPTYAPFESKNSQGELVGFDIDLAKELCKRINTQCTFVENPLDALIPSLKAKKIDAIMSSLSITEKRQQEIAFTDKLYAADSRLVVAKNSDIQPTVESLKGKRVGVLQGTTQETFGNEHWAPKGIEIVSYQGQDNIYSDLTAGRIDAAFQDEVAASEGFLKQPVGKDYKFGGPSVKDEKLFGVGTGMGLRKEDNELREALNKAFAEMRADGTYEKLAKKYFDFDVYGG [P0AEU0] | 6.1 ± 0.068 h | 5.88 ± 0.91 h | 3.08 ± 0.17 h | 6.45 ± 1 h | 13.1 ± 0.17 h | 5.8 ± 0.59 h | 14.3 ± 0.77 h |  | 13.9 ± 0.36 h | 6.2 ± 0.54 h | 5.99 ± 0.12 h | 6.35 ± 0.24 h
MKKPLRQQNRQIISYVPRTEPAPPEHAIKMDSFRDVWMLRGKYVAFVLMGESFLRSPAFTVPESAQRWANQIRQEGEVTE [P0AE60] | 3.87 h |  |  |  |  | 3.66 h | 9.35 h |  | 6.6 h | 4.26 ± 1.1 h | 5.19 h | 
MKKQRNLRSMAAQAVEQVVEQGQSLSNILPPLQQKVSDKDKALLQELCFGVLRTLSQLDWLINKLMARPMTGKQRTVHYLIMVGLYQLLYTRIPPHAALAETVEGAIAIKRPQLKGLINGVLRQFQRQQEELLAEFNASDARYLHPSWLLKRLQKAYPEQWQSIVEANNQRPPMWLRINRTHHSRDSWLALLDEAGMKGFPHADYPDAVRLETPAPVHALPGFEDGWVTVQDASAQGCMTWLAPQNGEHILDLCAAPGGKTTHILEVAPEAQVVAVDIDEQRLSRVYDNLKRLGMKATVKQGDGRYPSQWCGEQQFDRILLDAPCSATGVIRRHPDIKWLRRDRDIPELAQLQSEILDAIWPHLKTGGTLVYATCSVLPEENSLQIKAFLQRTADAELCETGTPEQPGKQNLPGAEEGDGFFYAKLIKK | 5.05 ± 1.1 h | 4.92 ± 0.25 h | 2.88 ± 0.45 h | 6.66 ± 1.9 h | 12.4 ± 0.73 h | 6.14 ± 0.58 h | 12.7 ± 0.89 h | 5.88 ± 1 h | 10.9 ± 0.76 h | 6.96 ± 0.51 h | 5.642 ± 0.039 h | 5.17 ± 0.74 h
MKKQTQLLSALALSVGLTLSASFQAVASIPGQVADQAPLPSLAPMLEKVLPAVVSVRVEGTASQGQKIPEEFKKFFGDDLPDQPAQPFEGLGSGVIINASKGYVLTNNHVINQAQKISIQLNDGREFDAKLIGSDDQSDIALLQIQNPSKLTQIAIADSDKLRVGDFAVAVGNPFGLGQTATSGIVSALGRSGLNLEGLENFIQTDASINRGNSGGALLNLNGELIGINTAILAPGGGSVGIGFAIPSNMARTLAQQLIDFGEIKRGLLGIKGTEMSADIAKAFNLDVQRGAFVSEVLPGSGSAKAGVKAGDIITSLNGKPLNSFAELRSRIATTEPGTKVKLGLLRNGKPLEVEVTLDTSTSSSASAEMITPALEGATLSDGQLKDGGKGIKIDEVVKGSPAAQAGLQKDDVIIGVNRDRVNSIAEMRKVLAAKPAIIALQIVRGNESIYLLMR | 6.47 ± 0.17 h | 5.56 ± 0.2 h | 3.05 ± 0.14 h | 6.305 ± 0.0077 h | 10 ± 0.31 h | 6.06 ± 0.2 h | 10.6 ± 0.71 h | 6.2 ± 0.32 h | 11.7 ± 0.17 h | 5.48 ± 0.15 h |  | 6.3328 ± 0.0043 h
MKKRIPTLLATMIATALYSQQGLAADLASQCMLGVPSYDRPLVQGDTNDLPVTINADHAKGDYPDDAVFTGSVDIMQGNSRLQADEVQLHQKEAPGQPEPVRTVDALGNVHYDDNQVILKGPKGWANLNTKDTNVWEGDYQMVGRQGRGKADLMKQRGENRYTILDNGSFTSCLPGSDTWSVVGSEIIHDREEQVAEIWNARFKVGPVPIFYSPYLQLPVGDKRRSGFLIPNAKYTTTNYFEFYLPYYWNIAPNMDATITPHYMHRRGNIMWENEFRYLSQAGAGLMELDYLPSDKVYEDEHPNDDSSRRWLFYWNHSGVMDQVWRFNVDYTKVSDPSYFNDFDNKYGSSTDGYATQKFSVGYAVQNFNATVSTKQFQVFSEQNTSSYSAEPQLDVNYYQNDVGPFDTRIYGQAVHFVNTRDDMPEATRVHLEPTINLPLSNNWGSINTEAKLLATHYQQTNLDWYNSRNTTKLDESVNRVMPQFKVDGKMVFERDMEMLAPGYTQTLEPRAQYLYVPYRDQSDIYNYDSSLLQSDYSGLFRDRTYGGLDRIASANQVTTGVTSRIYDDAAVERFNISVGQIYYFTESRTGDDNITWENDDKTGSLVWAGDTYWRISERWGLRGGIQYDTRLDNVATSNSSIEYRRDEDRLVQLNYRYASPEYIQATLPKYYSTAEQYKNGISQVGAVASWPIADRWSIVGAYYYDTNANKQADSMLGVQYSSCCYAIRVGYERKLNGWDNDKQHAVYDNAIGFNIELRGLSSNYGLGTQEMLRSNILPYQNTL | 6.39 ± 0.33 h | 6 ± 0.24 h | 3.25 ± 0.27 h | 6.269 ± 0.016 h | 13.3 ± 0.19 h | 6.7 ± 0.21 h | 13.5 ± 0.86 h | 6.76 ± 0.85 h | 13 ± 0.44 h | 6.34 ± 0.59 h | 6.59 ± 0.56 h | 6.28 ± 0.42 h
